Results published in US20260125649A1, “MEDIUM COMPOSITION AND METHOD FOR CULTURING MESENCHYMAL STEM CELLS” (ACADEMIA SINICA, priority 2018, published 2026).

Legend:
MSCs = assay: Cell cycle progression by flow cytometry with PI staining; assay type: cell-based, human; details: EpEX, at 18 h; from 6.5% without EpEX
Method: Phospho-EGFR (Tyr845) was detected by Western blotting. […] After treatment, cell cycle progression was investigated by flow cytometry with PI staining. Fraction of cells in each phase (G1, S, G2/M) of the cell cycle was evaluated. Cells that expressed EGFR shRNA or shLuc were treated with EpEX for 18 h. After treatment, cell cycle progression was investigated by flow cytometry with PI staining. Fraction of cells in each phase (G1, S, G2/M) of the cell cycle was evaluated. […] The protein expression of cell cycle regulators (cyclin D1, cyclin D2, cyclin E1) and pluripotency factors (Oct4, Sox2, c-Myc, Lin28) was examined by Western blotting. MSCs expressing EGFR shRNA were stimulated by EpEX. After treatment, the protein expression of cell cycle regulators (cyclin D1, cyclin E1, CDK4 and CDK9) and pluripotency factors (Oct4, in Sox2, c-Myc, and Lin 28) was examined by Western blotting. […] After treatment, the gene expression of pluripotency factors (Oct4, Sox2, c-Myc, Lin28 and EpCAM) was examined by qPCR.
After treatment, the protein levels of total STAT3 and phospho-STAT3 (Tyr705) were examined by Western blotting. […] Cell cycle progression was investigated by flow cytometry with PI staining. Fraction of cells in each phase (G1, S, G2/M) of the cell cycle was evaluated. […] Fraction of cells in each phase (G1, S, G2/M) of the cell cycle was evaluated. […]

HMGA2 = HMGA2 expression and nuclear translocation (Western blotting, immunofluorescence, qPCR); assay type: cell-based, human; details: EpEX 3 μg/mL
Method: MSCs were treated with EpEX (3 μg/mL), and the expression of HMGA2 was detected by immunofluorescence staining. […] To detect the binding of HMGA2 to Oct4 promoters, cross-linked DNA was isolated and then amplified with specific primers by qPCR. […] The gene expression of HMGA2 is detected by qPCR. MSCs were treated with let-7 mimetic and then treated with EpEX (3 μg/mL) for 12 h. The protein abundance of HMGA2 was examined by Western blotting.
Total RNA was extracted using TRI reagent (Invitrogen, CA, USA), and 5 μg of total RNA was reverse transcribed using oligo (dT) primer (Fermentas, Glen Burnie, MD, USA) with SuperScript III reverse transcriptase (Invitrogen). Quantitative real time RT-PCR (qPCR) was performed on cDNA using the Light Cycler 480 SYBR Green I Master kit (Roche Applied Science, Indianapolis, IN) and the LightCycler480 System (Roche Applied Science). The gene expression levels of each sample were normalized to the expression levels of glyceraldehyde 3-phosphate dehydrogenase (GAPDH).
Western blotting was performed as previously described (Takahashi et al., 2003). Cells were lysed in lysis buffer (150 mM NaCl, 50 mM Tris-HCl (pH 7.4), 1% Nonidet P-40), containing a protease inhibitor mix (Roche Applied Science). […]

B1: EpEX: extracellular domain of human EpCAM, 265 amino acids in length (SEQ ID NO: 2) (protein, listed as Homo sapiens)
chain: MAPPQVLAFGLLLAAATATFAAAQEECVCENYKLAVNCFVNNNRQCQCTSVGAQNTVICSKLAAKCLVMKAEMNGSKLGRRAKPEGALQNNDGLYDPDCDESGLFKAKQCNGTSMCWCVNTAGVRRTDKDTEITCSERVRTYWIIIELKHKAREKPYDSKSLRTALQKEITTRYQLDPKFITSILYENNVITIDLVQNSSQKTQNDVDIADVAYYFEKDVKGESLFHSKKMDLTVNGEQLDLDPGQTLIYYVDEKAPEFSMQGLK
- percentage of cells in G2/M phase (MSCs): 29.3%
- level of HMGA2 (HMGA2): induced
- HMGA2 nuclear translocation (HMGA2; Western blotting and immunofluorescent staining): induced
